Source: PMC5551713 (The Journal of Cell Biology, 2017)

Experiments:
Experiment in all cases: negative-stain TEM
[1] = target: PFKL-H199Y, point mutant at the sugar substrate binding site (human) (UniProt P17858)
[2] = target: muscle PFK1 (PFKM), phosphofructokinase-1, 780-amino-acid isoform 2 (human) (UniProt P08237)
[3] = target: platelet PFK1 (PFKP), phosphofructokinase-1 (human) (UniProt Q01813)
negative-stain TEM = target: the molecule itself

PFKL-H199Y, point mutant at the sugar substrate binding site (from UniProt P17858-1 1-780) (enzyme)
stoichiometry N [1]: 4

muscle PFK1 (PFKM), phosphofructokinase-1, 780-amino-acid isoform 2 (from UniProt P08237-1 1-780) (enzyme)
stoichiometry N [2]: 4

platelet PFK1 (PFKP), phosphofructokinase-1 (from UniProt Q01813 1-784) (enzyme)
stoichiometry N [3]: 4

B1: liver PFK1 (PFKL), phosphofructokinase-1, 780-amino-acid isoform b (enzyme, human, UniProt P17858-1 1-780, looked up)
chain: MAAVDLEKLRASGAGKAIGVLTSGGDAQGMNAAVRAVTRMGIYVGAKVFLIYEGYEGLVEGGENIKQANWLSVSNIIQLGGTIIGSARCKAFTTREGRRAAAYNLVQHGITNLCVIGGDGSLTGANIFRSEWGSLLEELVAEGKISETTARTYSHLNIAGLVGSIDNDFCGTDMTIGTDSALHRIMEVIDAITTTAQSHQRTFVLEVMGRHCGYLALVSALASGADWLFIPEAPPEDGWENFMCERLGETRSRGSRLNIIIIAEGAIDRNGKPISSSYVKDLVVQRLGFDTRVTVLGHVQRGGTPSAFDRILSSKMGMEAVMALLEATPDTPACVVTLSGNQSVRLPLMECVQMTKEVQKAMDDKRFDEATQLRGGSFENNWNIYKLLAHQKPPKEKSNFSLAILNVGAPAAGMNAAVRSAVRTGISHGHTVYVVHDGFEGLAKGQVQEVGWHDVAGWLGRGGSMLGTKRTLPKGQLESIVENIRIYGIHALLVVGGFEAYEGVLQLVEARGRYEELCIVMCVIPATISNNVPGTDFSLGSDTAVNAAMESCDRIKQSASGTKRRVFIVETMGGYCGYLATVTGIAVGADAAYVFEDPFNIHDLKVNVEHMTEKMKTDIQRGLVLRNEKCHDYYTTEFLYNLYSSEGKGVFDCRTNVLGHLQQGGAPTPFDRNYGTKLGVKAMLWLSEKLREVYRKGRVFANAPDSACVIGLKKKAVAFSPVTELKKDTDFEHRMPREQWWLSLRLMLKMLAQYRISMAAYVSGELEHVTRRTLSMDKGF
stoichiometry N (negative-stain TEM): 4
